Holding throughout (test): cell-based or functional assay
Assay [1] has as its target 980601 (BX): Purified preparation of Danisco's new bacterial xylanase expressed in E. coli (Bacillus subtilis) (UniProt P18429).
Assay [2] has as its target 980903 (XM1): Purified mutant of Bacillus sub. wild type xylanase expressed in E. coli.
Assay [3] has as its target 980603 (Röhm): Purified preparation of Frimond's Belase xylanase (identical to Röhm's) (Bacillus subtilis).

In assay [1], “endogenous endo-β-1,4-xylanase inhibitor from wheat flour” came in with a Difference, % (average rest activity of 980601 against 980603) of 25.6%; an Inhibation, % (flour 98002) of 67%; an Inhibation, % (flour 98026) of 75%; an OD 590 (+inhibitor), xylanase activity on Xylazyme of 0.165 OD 590. In assay [1], this substance gave a Residual activity, % of 24.4%; a Rest act., % (Avg) of 29%; a Rest act., % (flour 98002) of 33%; a Rest act., % (flour 98026) of 25%. For the same substance, the Vmax (Lineweaver-Burk plot, relative OD 590, with and without inhibitor) (relative OD 590) in assay [1] is 1.19. Also, in assay [2], the difference in inhibition between XM1 and XM2 was 250%; the residual activity of XM1 relative to rest activity of XM2 came out at 2.5 times. In assay [3], this substance had an Inhibation, % (flour 98002) of 60.8%; an Inhibation, % (flour 98026) of 61.3%; a Rest act., % (Avg) of 39%; a Rest act., % (flour 98002) of 39.2%. The substance also yielded a Rest act., % (flour 98026) in assay [3] of 38.7%.
